Laboratory results taken from patent US20220380463A1.

B1: SAD10320_P02_E05 (antibody, V domains shown)
VH: QVQLVQSGAEVKKPGASVKVSCKASGFNIKDYYMHWVRQAPGQRLEWMGWIDLENANTIYDAKFQGRVTITRDTSASTAYMELSSLRSEDTAVYYCARDMHGRYFYDVWGQGTLVTVSS
VL: DIVMTQSPDSLAVSLGERATINCKSSQSLLNARTGKNYLAWYQQKPGQPPKLLIYWASTRESGVPDRFSGSGSGTDFTLTISSLQAEDVAVYYCKQSEHRRTFGGGTKVEIK
B2: SAD10320_P04_F11 (antibody, V domains shown)
VH: QVQLVQSGAEVKKPGASVKVSCKASGFNIKDYYMHWVRQAPGQRLEWMGWIDLENANTIYDAKFQGRVTITRDTSASTAYMELSSLRSEDTAVYYCARDAYGHEFYDVWGQGTLVTVSS
VL: DIVMTQSPDSLAVSLGERATINCKSSQSLLNARTGKNYLAWYQQKPGQPPKLLIYWASTRESGVPDRFSGSGSGTDFTLTISSLQAEDVAVYYCKQGHSRRTFGGGTKVEIK
B3: SAD10320_P02_H06 (antibody, V domains shown)
VH: QVQLVQSGAEVKKPGASVKVSCKASGFNIKDYYMHWVRQAPGQRLEWMGWIDLENANTIYDAKFQGRVTITRDTSASTAYMELSSLRSEDTAVYYCARDAYGRNHYDVWGQGTLVTVSS
VL: DIVMTQSPDSLAVSLGERATINCKSSQSLLNARTGKSYLAWYQQKPGQPPKLLIYWASTRESGVPDRFSGSGSGTDFTLTISSLQAEDVAVYYCKQSYVHRTFGGGTKVEIK
B4: SAD10320_P03_H08 (antibody, V domains shown)
VH: QVQLVQSGAEVKKPGASVKVSCKASGFNIKDYYMHWVRQAPGQRLEWMGWIDLENANTIYDAKFQGRVTITRDTSASTAYMELSSLRSEDTAVYYCARDAYGHVFYDVWGQGTLVTVSS
VL: DIVMTQSPDSLAVSLGERATINCKSSQSLLNASTAKNYLAWYQQKPGQPPKLLIYWASTRESGVPDRFSGSGSGTDFTLTISSLQAEDVAVYYCKQSYRHRTFGGGTKVEIK
B5: SAD10320_P04_A12 (antibody, V domains shown)
VH: QVQLVQSGAEVKKPGASVKVSCKASGFNIKDYYMHWVRQAPGQRLEWMGWIDLENANTIYDAKFQGRVTITRDTSASTAYMELSSLRSEDTAVYYCARDAYGHVFYDVWGQGTLVTVSS
VL: DIVMTQSPDSLAVSLGERATINCKSSQSLLNARTGKNYLAWYQQKPGQPPKLLIYWASTRESGVPDRFSGSGSGTDFTLTISSLQAEDVAVYYCKQSYHHRTFGGGTKVEIK
B6: SAD10320_P03_E07 (antibody, V domains shown)
VH: QVQLVQSGAEVKKPGASVKVSCKASGFNIKDYYMHWVRQAPGQRLEWMGWIDLENANTIYDAKFQGRVTITRDTSASTAYMELSSLRSEDTAVYYCARDAVHRYFYDVWGQGTLVTVSS
VL: DIVMTQSPDSLAVSLGERATINCKSSQSLLNARTGKNYLAWYQQKPGQPPKLLIYWASTRESGVPDRFSGSGSGTDFTLTISSLQAEDVAVYYCKQSYHPRTFGGGTKVEIK
B7: SAD10320_P03_D08 (antibody, V domains shown)
VH: QVQLVQSGAEVKKPGASVKVSCKASGFNIKDYYMHWVRQAPGQRLEWMGWIDLENANTIYDAKFQGRVTITRDTSASTAYMELSSLRSEDTAVYYCARDAYGHQFYDVWGQGTLVTVSS
VL: DIVMTQSPDSLAVSLGERATINCKSSQSLLNARTGKNYLAWYQQKPGQPPKLLIYWASTRESGVPDRFSGSGSGTDFTLTISSLQAEDVAVYYCKQSYHTRTFGGGTKVEIK
B8: SAD10320_P03_A09 (antibody, V domains shown)
VH: QVQLVQSGAEVKKPGASVKVSCKASGFNIKDYYMHWVRQAPGQRLEWMGWIDLENANTIYDAKFQGRVTITRDTSASTAYMELSSLRSEDTAVYYCARDAYGHVFYDVWGQGTLVTVSS
VL: DIVMTQSPDSLAVSLGERATINCKSSQSLLNARTGKNYLAWYQQKPGQPPKLLIYWASTRESGVPDRFSGSGSGTDFTLTISSLQAEDVAVYYCKQSSHRRTFGGGTKVEIK
B9: SAD10320_P04_G11 (antibody, V domains shown)
VH: QVQLVQSGAEVKKPGASVKVSCKASGFNIKDYYMHWVRQAPGQRLEWMGWIDLENANTIYDAKFQGRVTITRDTSASTAYMELSSLRSEDTAVYYCARDAYRHEFYDVWGQGTLVTVSS
VL: DIVMTQSPDSLAVSLGERATINCKSSQSLLNARTGKNYLAWYQQKPGQPPKLLIYWASTRESGVPDRFSGSGSGTDFTLTISSLQAEDVAVYYCKQSYYHRTFGGGTKVEIK
B10: SAD10320_P04_D12 (antibody, V domains shown)
VH: QVQLVQSGAEVKKPGASVKVSCKASGFNIKDYYMHWVRQAPGQRLEWMGWIDLENANTIYDAKFQGRVTITRDTSASTAYMELSSLRSEDTAVYYCARDAYGHDFYDVWGQGTLVTVSS
VL: DIVMTQSPDSLAVSLGERATINCKSSQSLLNARTGKNYLAWYQQKPGQPPKLLIYWASTRESGVPDRFSGSGSGTDFTLTISSLQAEDVAVYYCKQSYSHRTFGGGTKVEIK
B11: SAD10320_P03_F08 (antibody, V domains shown)
VH: QVQLVQSGAEVKKPGASVKVSCKASGFNIKDYYMHWVRQAPGQRLEWMGWIDLENANTIYDAKFQGRVTITRDTSASTAYMELSSLRSEDTAVYYCARDAYGHDFYDVWGQGTLVTVSS
VL: DIVMTQSPDSLAVSLGERATINCKSSQSLLNARPGKNYLAWYQQKPGQPPKLLIYWASTRESGVPDRFSGSGSGTDFTLTISSLQAEDVAVYYCKQSYSRRTFGGGTKVEIK
B12: SAD10320_P04_D11 (antibody, V domains shown)
VH: QVQLVQSGAEVKKPGASVKVSCKASGFNIKDYYMHWVRQAPGQRLQWMGWIDLENANTIYDAKFQGRVTITRDTSASTAYMELSSLRSEDTAVYYCARDAYGHVFYDVWGQGTLVTVSS
VL: DIVMTQSPDSLAVSLGERATINCKSSQSLLNARTGKNYLAWYQQKPGQPPKLLIYWASTRESGVPDRFSGSGSGTDFTLTISSLQAEDVAVYYCKQSYHHRTFGGGTKVEIK
B13: SAD10320_P03_C08 (antibody, V domains shown)
VH: QVQLVQSGAEVKKPGASVKVSCEASGFNIKDYYMHWVRQAPGQTLAWMGWIDLENANTIYDAKFQGRVTITRDTSASTAYMELSSLRSEDTAVYYCARDAYGHVFYDVWGQGTLVTVSS
VL: DIVMTQSPDSLAVSLGERATINCKSSQSLLNARTGKNYLAWYQQKPGQPPKLLIYWASTRESGVPDRFSGSGSGTDFTLTISSLQAEDVAVYYCKQSYLHRTFGGGTKVEIK
B14: SAD10320_P03_C09 (antibody, V domains shown)
VH: QVQLVQSGAEVKKPGASVKVSCEASGFNIKDYYMHWVRQAPGQRLEWMGWIDLENANTIYDAKFQGRVTITRDTSASTAYMELSSLRSEDTAVYYCARDAYGHVFYDVWGQGTLVTVSS
VL: DIVMTQSPDSLAVSLGERATINCKSSQSLLNARTGKNYLAWYQQKPGQPPKLLIYWASTRESGVPDRFSGSGSGTDFTLTISSLQAEDVAVYYCKQSYLHRTFGGGTKVEIK
B15: SAD10320_P02_D06 (antibody, V domains shown)
VH: QVQLVQSGAEVKKPGASVKVSCKASGFNIKDYYMHWVRQAPGQRPAWMGWIDLENANTIYDAKFQGRVTITRDTSASTAYMELSSLRSEDTAVYYCARDAYGHGFYDVWGQGTLVTVSS
VL: DIVMTQSPDSLAVSLGERATINCKSSQSLLNARTGKNYLAWYQQKPGQPPKLLIYWASTRESGVPDRFSGSGSGTDFTLTISSLQAEDVAVYYCKQSYGHRTFGGGTKVEIK
B16: SAD10320_P04_A11 (antibody, V domains shown)
VH: QVQLVQSGAEVKKPGASVKVSCKASGFNIKDYYMHWVRQAPGQRLQWMGWIDLENANTIYDAKFQGRVTITRDTSASTAYMELSSLRSEDTAVYYCARDARHRYFYDVWGQGTLVTVSS
VL: DIVMTQSPDSLAVSLGERATINCKSSQSLLNARTGKNYLAWYQQKPGQPPKLLIYWASTRESGVPDRFSGSGSGTDFTLTISSLQAEDVAVYYCKQSYSHGTFGGGTKVEIK
B17: SAD10320_P03_F09 (antibody, V domains shown)
VH: QVQLVQSGAEVKKPGASVKVSCKASGFNIKDYYMHWVRQAPGQRLEWMGWIDLENANTIYDAKFQGRVTITRDTSASTAYMELSSLRSEDTAVYYCARDAYGHDFYDVWGQGTLVTVSS
VL: DIVMTQSPDSLAVSLGERATINCKSSQSLLNARTGKNYLAWYQQKPGQPPKLLIYWASTRESGVPDRFSGSGSGTDFTLTISSLQAEDVAVYYCKQSYHRRTFGGGTKVEIK
B18: SAD10320_P04_E11 (antibody, V domains shown)
VH: QVQLVQSGAEVKKPGASVKVSCKASGFNIKDYYMHWVRQAPGQRLEWMGWIDLENANTIYDAKFQGRVTITRDTSASTAYMELSSLRSEDTAVYYCARDAYGHDFYDVWGQGTLVTVSS
VL: DIVMTQSPDSLAVSLGERATINCKSSQSLLNARTGKNYLAWYQQKPGQPPKLLIYWASTRESGVPDRFSGSGSGTDFTLTISSLQAEDVAVYYCKQSYGHRTFGGGTKVEIK
B19: SAD10320_P04_F10 (antibody, V domains shown)
VH: QVQLVQSGAEVKKPGASVKVSCKASGFNIKDYYMHWVRQAPGQTLDWMGWIDLENANTIYDAKFQGRVTITRDTSASTAYMELSSLRSEDTAVYYCARDAYGRNHYDVWGQGTLVTVSS
VL: DIVMTQSPDSLAVSLGERATINCKSSQSLLNARPGKNYLAWYQQKPGQPPKLLIYWASTRESGVPDRFSGSGSGTDFTLTISSLQAEDVAVYYCKQSYLHRTFGGGTKVEIK
B20: SAD10320_P02_A06 (antibody, V domains shown)
VH: QVQLVQSGAEVKKPGASVKVSCKASGFNIKDYYMHWVRQAPGQRLPWMGWIDLENANTIYDAKFQGRVTITRDTSASTAYMELSSLRSEDTAVYYCARDAHERYFYDVWGQGTLVTVSS
VL: DIVMTQSPDSLAVSLGERATINCKSSQSLLNARTGKNYLAWYQQKPGQPPKLLIYWASTRESGVPDRFSGSGSGTDFTLTISSLQAEDVAVYYCKQSHLRRTFGGGTKVEIK
B21: SAD10320_P04_C10 (antibody, V domains shown)
VH: QVQLVQSGAEVKKPGASVKVSCKASGFNIKDYYMHWVRQAPGQRLEWMGWIDLENANTIYDAKFQGRVTITRDTSASTAYMELSSLRSEDTAVYYCARDAYGHAFYDVWGQGTLVTVSS
VL: DIVMTQSPDSLAVSLGERATINCKSSQSLLNARTGKNYLAWYQQKPGQPPKLLIYWASTRESGVPDRFSGSGSGTDFTLTISSLQAEDVAVYYCKQSYHQRTFGGGTKVEIK

Target: cynomolgus CD3εδ Fc heterodimer (Cy CD3ε Fc / CD3δ Fc-HIS) (cynomolgus) (UniProt Q95LI8)
Test: BLI (ForteBio), pH 6.0

cynomolgus CD3εδ Fc heterodimer (Cy CD3ε Fc / CD3δ Fc-HIS) (cynomolgus), sequence (chain, as listed by the source mutant, chain 1 of 2): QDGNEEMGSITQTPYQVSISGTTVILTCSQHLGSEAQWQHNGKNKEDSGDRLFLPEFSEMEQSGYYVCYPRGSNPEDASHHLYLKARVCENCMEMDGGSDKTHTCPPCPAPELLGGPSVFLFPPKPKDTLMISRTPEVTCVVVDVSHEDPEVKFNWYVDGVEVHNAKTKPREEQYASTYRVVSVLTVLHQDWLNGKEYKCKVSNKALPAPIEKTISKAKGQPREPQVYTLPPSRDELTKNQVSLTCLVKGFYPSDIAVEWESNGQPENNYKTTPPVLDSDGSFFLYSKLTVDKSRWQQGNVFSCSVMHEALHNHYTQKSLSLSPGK
cynomolgus CD3εδ Fc heterodimer (Cy CD3ε Fc / CD3δ Fc-HIS) (cynomolgus), sequence (Q95LI8 22-100, stated change not applied, chain 2 of 2): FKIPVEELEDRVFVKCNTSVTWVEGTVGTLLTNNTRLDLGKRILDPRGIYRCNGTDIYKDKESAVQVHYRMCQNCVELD

Kd [nM]	kon [M⁻¹ s⁻¹]	Binder
14.5	219000	B1
9.55	201000	B2
10.5	268000	B3
181	82700	B4
240	69700	B5
33.8	207000	B6
7.76	249000	B7
14.6	199000	B8
15.7	176000	B9
13.9	186000	B10
15	179000	B11
16.9	200000	B12
323	46900	B13
31.6	161000	B14
23.4	265000	B15
29.4	252000	B16
37	195000	B17
20.1	148000	B18
8.51	281000	B19
11.6	228000	B20
168	111000	B21
